“And” between values parts separate entries of the source, which are not always exact repeats. Equal entries are not always repeated. Where two headings read alike, the source gives them in different places.
What was measured:
[1] = target: the molecule itself; assay: cryo-EM structure
[2] = target: the molecule itself; assay: cryo-EM structure; remark: listed apart in the source

B1: S210A DegP (enzyme)
chain: AETSSATTAQQMPSLAPMLEKVMPSVVSINVEGSTTVNTPRMPRNFQQFFGDDSPFCQEGSPFQSSPFCQGGQGGNGGGQQQKFMALGSGVIIDADKGYVVTNNHVVDNATVIKVQLSDGRKFDAKMVGKDPRSDIALIQIQNPKNLTAIKMADSDALRVGDYTVAIGNPFGLGETVTSGIVSALGRSGLNAENYENFIQTDAAINRGNAGGALVNLNGELIGINTAILAPDGGNIGIGFAIPSNMVKNLTSQMVEYGQVKRGELGIMGTELNSELAKAMKVDAQRGAFVSQVLPNSSAAKAGIKAGDVITSLNGKPISSFAALRAQVGTMPVGSKLTLGLLRDGKQVNVNLELQQSSQNQVDSSSIFNGIEGAEMSNKGKDQGVVVNNVKTGTPAAQIGLKKGDVIIGANQQAVKNIAELRKVLDSKPSVLALNIQRGDSTIYLLMQ
stoichiometry N [1]: 30 and 60 | stoichiometry N [2]: 18

From publication doi:10.1101/2022.10.17.512556 (bioRxiv, 2022)
